Experimental findings from patent US20140087995A1 (published 2014) are described below.

Numbered stars: 1 amine (or outer) side, 2 acyl side, 3 side chain; on linkers, the order of the positions; unused ones are H or OH. Bridge positions count the residues as written; N and C are the ends. Side chains are listed from the residue outwards. Ends that are not written are not given here. * marks the point of attachment. C20 diacid = O=C(O)CCCCCCCCCCCCCCCCCCC(=O)*; γGlu = O=C(O)[C@H](CCC(=O)[*:2])N[*:1]; C14 diacid = O=C(O)CCCCCCCCCCCCC(=O)*; AEEA = NCCOCCOCC(=O)O

For test [1], the target named is T1, rat calcitonin receptor (rat, UniProt P32214 25-516).
T1 construct: whole, on cells; Membranes of transiently transfected BHK tk'ts 13 cells; also called rCTR; rat calcitonin (a) receptor
T1 sequence (looked up): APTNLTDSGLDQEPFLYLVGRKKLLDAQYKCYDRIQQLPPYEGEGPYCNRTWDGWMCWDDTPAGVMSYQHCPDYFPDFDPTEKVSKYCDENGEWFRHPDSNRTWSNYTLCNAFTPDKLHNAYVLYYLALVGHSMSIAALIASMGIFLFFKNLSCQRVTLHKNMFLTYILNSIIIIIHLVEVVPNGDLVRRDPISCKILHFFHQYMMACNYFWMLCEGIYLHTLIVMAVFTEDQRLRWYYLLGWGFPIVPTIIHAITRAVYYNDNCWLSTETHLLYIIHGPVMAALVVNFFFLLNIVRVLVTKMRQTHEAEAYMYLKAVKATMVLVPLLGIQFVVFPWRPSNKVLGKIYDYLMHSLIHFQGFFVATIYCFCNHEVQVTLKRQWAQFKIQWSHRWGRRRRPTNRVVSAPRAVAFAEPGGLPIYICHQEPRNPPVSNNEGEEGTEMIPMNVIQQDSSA
The experiment in a line: ratio of IC50 on rat calcitonin receptor to IC50 on rat amylin receptor (reference m40).

The target of test [2] is T1, rat calcitonin receptor. Put plainly: SPA competition with 125I-calcitonin on membranes of BHK tk'ts 13 cells with rat calcitonin receptor (Assay VIII).
The target of test [3] is T2, human calcitonin receptor (human, UniProt P30988 25-474).
T2 construct: whole, on cells; Membranes of stably transfected cells; also called hCTR; hCT
T2 sequence (looked up): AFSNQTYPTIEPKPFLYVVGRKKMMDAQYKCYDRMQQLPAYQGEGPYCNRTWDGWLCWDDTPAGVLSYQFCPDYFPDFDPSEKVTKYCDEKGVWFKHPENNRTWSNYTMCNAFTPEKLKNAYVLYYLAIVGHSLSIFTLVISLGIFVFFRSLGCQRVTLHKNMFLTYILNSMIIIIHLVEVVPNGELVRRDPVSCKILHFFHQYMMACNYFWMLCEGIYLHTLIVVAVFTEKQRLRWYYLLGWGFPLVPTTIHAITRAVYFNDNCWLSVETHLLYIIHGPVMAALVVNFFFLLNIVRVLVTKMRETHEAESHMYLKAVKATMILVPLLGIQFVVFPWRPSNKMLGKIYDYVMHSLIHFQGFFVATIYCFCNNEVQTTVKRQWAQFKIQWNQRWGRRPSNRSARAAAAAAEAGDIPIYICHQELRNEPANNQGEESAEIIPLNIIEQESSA
Put plainly: ratio of IC50 on human calcitonin receptor to IC50 on human amylin receptor (reference m42), SPA competition. The procedure: The resulting pellet was resuspended, homogenized and centrifuged (20.000 rpm, 15 min) in a buffer containing 20 mM Na-HEPES and 0.1 mM EDTA (pH 7.4, buffer 2). The resulting pellet was resuspended in buffer 2 and protein concentration was measured (BCA protein Assay, Pierce). The homogenate was kept cold during the whole procedure. The membranes were kept at −80° C. until use. The assay was performed in a 384 well Optiplate (PerkinElmer) in a total volume of 40 ul. Membranes were mixed with SPA beads. Final concentration of membranes 35 ng/μL final and SPA beads was 0.05 mg/well. Test-compounds were dissolved in DMSO and further diluted in assay buffer (50 mM Hepes, pH 7.4, 1 mM CaCl2, 5 mM MgCl₂, 0.1% OA and 0.02% Tween20). […] The final mixture was incubated with shaking at 400 rpm for 120 min at 25° C. prior to centrifugation (1500 rpm, 10 min). Samples were analyzed on TopCounter™ (Packard). The IC₅₀ was calculated using (one site binding competition analysis) GraphPad Prism5 as a measure of receptor affinity.
Membranes were prepared in the following way; the cells were rinsed with PBS and incubated with Versene for approximately 5 min before harvesting. The cells were flushed with PBS and the cell-suspension was centrifuged for 5 min at 1000 rpm. Cells were homogenized (Ultrathurrax) in a buffer containing 20 mM Na-HEPES and 10 mM EDTA (pH 7.4) and centrifuged at 20.000 rpm for 15 min. The resulting pellet was resuspended, homogenized and centrifuged (20.000 rpm, 15 min) in a buffer containing 20 mM Na-HEPES and 0.1 mM EDTA (pH 7.4, buffer 2). The resulting pellet was resuspended in buffer 2 and protein concentration was measured (BCA protein Assay, Pierce). The homogenate was kept cold during the whole procedure. The membranes were kept at −80° C. until use. Assay was performed in a 384 well Optiplate (PerkinElmer) in a total volume of 40 ul. Membranes were mixed with SPA beads.

Test [4] addresses T3, rat amylin receptor (rat calcitonin receptor + rat RAMP 3) (rat, UniProt P32214 25-516; Q9JJ73 23-147).
T3 construct: whole, on cells; Membranes of transiently transfected BHK tk'ts 13 cells; also called rAmylin-R; rat amylin 3(a) receptor
T3 sequence (looked up) 1: T1 sequence (looked up)
T3 sequence (looked up) 2: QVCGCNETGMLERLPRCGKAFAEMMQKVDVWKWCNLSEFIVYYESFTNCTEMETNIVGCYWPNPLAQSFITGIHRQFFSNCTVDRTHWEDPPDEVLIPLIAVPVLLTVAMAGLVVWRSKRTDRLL
The experiment in a line: SPA competition with 125I-rat amylin on membranes of BHK tk'ts 13 cells with rat calcitonin receptor + rat RAMP3 (Assay VI).

B1: N^ε1-[2-[2-[2-[[2-[2-[2-[[(4S)-4-carboxy-4-(19-carboxynonadecanoylamino)butanoyl]amino]ethoxy]ethoxy]acetyl]amino]ethoxy]ethoxy]acetyl]-[Arg17,Pro21,Pro27,His34 … (peptide)
peptide: K([AEEA-AEEA-γGlu-C20 diacid])CNTATCATQRLANFLRHSSPNFGAIPSSTNVGHNTY-NH2
modifications: disulfide 2-7; N-terminus assumed
SMILES: CC[C@H](C)[C@H](NC(=O)[C@H](C)NC(=O)CNC(=O)[C@H](Cc1ccccc1)NC(=O)[C@H](CC(N)=O)NC(=O)[C@@H]1CCCN1C(=O)[C@H](CO)NC(=O)[C@H](CO)NC(=O)[C@H](Cc1c[nH]cn1)NC(=O)[C@H](CCCNC(=N)N)NC(=O)[C@H](CC(C)C)NC(=O)[C@H](Cc1ccccc1)NC(=O)[C@H](CC(N)=O)NC(=O)[C@H](C)NC(=O)[C@H](CC(C)C)NC(=O)[C@H](CCCNC(=N)N)NC(=O)[C@H](CCC(N)=O)NC(=O)[C@@H](NC(=O)[C@H](C)NC(=O)[C@@H]1CSSC[C@H](NC(=O)[C@@H](N)CCCCNC(=O)COCCOCCNC(=O)COCCOCCNC(=O)CC[C@H](NC(=O)CCCCCCCCCCCCCCCCCCC(=O)O)C(=O)O)C(=O)N[C@@H](CC(N)=O)C(=O)N[C@@H]([C@@H](C)O)C(=O)N[C@@H](C)C(=O)N[C@@H]([C@@H](C)O)C(=O)N1)[C@@H](C)O)C(=O)N1CCC[C@H]1C(=O)N[C@@H](CO)C(=O)N[C@@H](CO)C(=O)N[C@H](C(=O)N[C@@H](CC(N)=O)C(=O)N[C@H](C(=O)NCC(=O)N[C@@H](Cc1c[nH]cn1)C(=O)N[C@@H](CC(N)=O)C(=O)N[C@H](C(=O)N[C@@H](Cc1ccc(O)cc1)C(N)=O)[C@@H](C)O)C(C)C)[C@@H](C)O
notes: Synthetic acylated analogue of human amylin; also called compound 97
B1: in the test with rat calcitonin receptor [1], the “Ratio rCT/rAmylin binding” value came to 71.1. In addition, the IC50 with rat calcitonin receptor [2] was determined as 159 nM; in test [4], 2.24 nM. The “Ratio hCT/hAmylin binding” value in test [3] stood at 104.

B2: N^ε1-[2-[2-[2-[[2-[2-[2-[[(4S)-4-carboxy-4-(19-carboxynonadecanoylamino)butanoyl]amino]ethoxy]ethoxy]acetyl]amino]ethoxy]ethoxy]acetyl]-[Arg17,Pro21,Pro27,Pro34 … (peptide)
peptide: K([AEEA-AEEA-γGlu-C20 diacid])CNTATCATQRLANFLRHSSPNFGAIPSSTNVGPNTY-NH2
modifications: disulfide 2-7; N-terminus assumed
SMILES: CC[C@H](C)[C@H](NC(=O)[C@H](C)NC(=O)CNC(=O)[C@H](Cc1ccccc1)NC(=O)[C@H](CC(N)=O)NC(=O)[C@@H]1CCCN1C(=O)[C@H](CO)NC(=O)[C@H](CO)NC(=O)[C@H](Cc1c[nH]cn1)NC(=O)[C@H](CCCNC(=N)N)NC(=O)[C@H](CC(C)C)NC(=O)[C@H](Cc1ccccc1)NC(=O)[C@H](CC(N)=O)NC(=O)[C@H](C)NC(=O)[C@H](CC(C)C)NC(=O)[C@H](CCCNC(=N)N)NC(=O)[C@H](CCC(N)=O)NC(=O)[C@@H](NC(=O)[C@H](C)NC(=O)[C@@H]1CSSC[C@H](NC(=O)[C@@H](N)CCCCNC(=O)COCCOCCNC(=O)COCCOCCNC(=O)CC[C@H](NC(=O)CCCCCCCCCCCCCCCCCCC(=O)O)C(=O)O)C(=O)N[C@@H](CC(N)=O)C(=O)N[C@@H]([C@@H](C)O)C(=O)N[C@@H](C)C(=O)N[C@@H]([C@@H](C)O)C(=O)N1)[C@@H](C)O)C(=O)N1CCC[C@H]1C(=O)N[C@@H](CO)C(=O)N[C@@H](CO)C(=O)N[C@H](C(=O)N[C@@H](CC(N)=O)C(=O)N[C@H](C(=O)NCC(=O)N1CCC[C@H]1C(=O)N[C@@H](CC(N)=O)C(=O)N[C@H](C(=O)N[C@@H](Cc1ccc(O)cc1)C(N)=O)[C@@H](C)O)C(C)C)[C@@H](C)O
notes: Synthetic acylated analogue of human amylin; also called compound 98
Take B2: in the test with rat calcitonin receptor [1], the “Ratio rCT/rAmylin binding” value is 176. Moreover, the IC50 with rat calcitonin receptor [2] was found to be 24.1 nM; in test [4] it was 0.137 nM. Besides, in test [3], the “Ratio hCT/hAmylin binding” value was 74.1.

B3: N^ε1-[(4S)-4-carboxy-4-(13-carboxytridecanoylamino)butanoyl]-[Arg17,Pro21,Pro27,His34]-h-amylin (peptide)
peptide: K([γGlu-C14 diacid])CNTATCATQRLANFLRHSSPNFGAIPSSTNVGHNTY-NH2
modifications: disulfide 2-7; N-terminus assumed
SMILES: CC[C@H](C)[C@H](NC(=O)[C@H](C)NC(=O)CNC(=O)[C@H](Cc1ccccc1)NC(=O)[C@H](CC(N)=O)NC(=O)[C@@H]1CCCN1C(=O)[C@H](CO)NC(=O)[C@H](CO)NC(=O)[C@H](Cc1c[nH]cn1)NC(=O)[C@H](CCCNC(=N)N)NC(=O)[C@H](CC(C)C)NC(=O)[C@H](Cc1ccccc1)NC(=O)[C@H](CC(N)=O)NC(=O)[C@H](C)NC(=O)[C@H](CC(C)C)NC(=O)[C@H](CCCNC(=N)N)NC(=O)[C@H](CCC(N)=O)NC(=O)[C@@H](NC(=O)[C@H](C)NC(=O)[C@@H]1CSSC[C@H](NC(=O)[C@@H](N)CCCCNC(=O)CC[C@H](NC(=O)CCCCCCCCCCCCC(=O)O)C(=O)O)C(=O)N[C@@H](CC(N)=O)C(=O)N[C@@H]([C@@H](C)O)C(=O)N[C@@H](C)C(=O)N[C@@H]([C@@H](C)O)C(=O)N1)[C@@H](C)O)C(=O)N1CCC[C@H]1C(=O)N[C@@H](CO)C(=O)N[C@@H](CO)C(=O)N[C@H](C(=O)N[C@@H](CC(N)=O)C(=O)N[C@H](C(=O)NCC(=O)N[C@@H](Cc1c[nH]cn1)C(=O)N[C@@H](CC(N)=O)C(=O)N[C@H](C(=O)N[C@@H](Cc1ccc(O)cc1)C(N)=O)[C@@H](C)O)C(C)C)[C@@H](C)O
notes: Synthetic acylated analogue of human amylin
For the molecule B3, in the test with rat calcitonin receptor [1], the “Ratio rCT/rAmylin binding” value worked out at 280. Besides, the IC50 was 707 nM with rat calcitonin receptor [2] and 2.52 nM in test [4]. Also, in test [3], the “Ratio hCT/hAmylin binding” value stood at 23.5.

B4: N^ε1-[2-[2-[2-[[2-[2-[2-[[(4S)-4-carboxy-4-(19-carboxynonadecanoylamino)butanoyl]amino]ethoxy]ethoxy]acetyl]amino]ethoxy]ethoxy]acetyl]-[Arg17,Pro21,Pro27,Pro31 … (peptide)
peptide: K([AEEA-AEEA-γGlu-C20 diacid])CNTATCATQRLANFLRHSSPNFGAIPSSTPVGSNTY-NH2
modifications: disulfide 2-7; N-terminus assumed
SMILES: CC[C@H](C)[C@H](NC(=O)[C@H](C)NC(=O)CNC(=O)[C@H](Cc1ccccc1)NC(=O)[C@H](CC(N)=O)NC(=O)[C@@H]1CCCN1C(=O)[C@H](CO)NC(=O)[C@H](CO)NC(=O)[C@H](Cc1c[nH]cn1)NC(=O)[C@H](CCCNC(=N)N)NC(=O)[C@H](CC(C)C)NC(=O)[C@H](Cc1ccccc1)NC(=O)[C@H](CC(N)=O)NC(=O)[C@H](C)NC(=O)[C@H](CC(C)C)NC(=O)[C@H](CCCNC(=N)N)NC(=O)[C@H](CCC(N)=O)NC(=O)[C@@H](NC(=O)[C@H](C)NC(=O)[C@@H]1CSSC[C@H](NC(=O)[C@@H](N)CCCCNC(=O)COCCOCCNC(=O)COCCOCCNC(=O)CC[C@H](NC(=O)CCCCCCCCCCCCCCCCCCC(=O)O)C(=O)O)C(=O)N[C@@H](CC(N)=O)C(=O)N[C@@H]([C@@H](C)O)C(=O)N[C@@H](C)C(=O)N[C@@H]([C@@H](C)O)C(=O)N1)[C@@H](C)O)C(=O)N1CCC[C@H]1C(=O)N[C@@H](CO)C(=O)N[C@@H](CO)C(=O)N[C@H](C(=O)N1CCC[C@H]1C(=O)N[C@H](C(=O)NCC(=O)N[C@@H](CO)C(=O)N[C@@H](CC(N)=O)C(=O)N[C@H](C(=O)N[C@@H](Cc1ccc(O)cc1)C(N)=O)[C@@H](C)O)C(C)C)[C@@H](C)O
notes: Synthetic acylated analogue of human amylin; also called compound 96
As to B4, the “Ratio rCT/rAmylin binding” value with rat calcitonin receptor [1] stood at 118. Also, the IC50 with rat calcitonin receptor [2] turned out to be 62.2 nM; in test [4] it was 0.529 nM. Also, in test [3], the “Ratio hCT/hAmylin binding” value stood at 79.6.
